Patent publication US20240294650A1 (Alector, published 2024)

T1: recombinant cynomolgus MerTK extracellular domain (cynomolgus, UniProt Q12866 21-505 (human entry))
T1 construct: also called cyno MerTK ECD; not shown: polyHis or TEVS/Thrombin/murine IgG2a-Fc tag
T1 chain: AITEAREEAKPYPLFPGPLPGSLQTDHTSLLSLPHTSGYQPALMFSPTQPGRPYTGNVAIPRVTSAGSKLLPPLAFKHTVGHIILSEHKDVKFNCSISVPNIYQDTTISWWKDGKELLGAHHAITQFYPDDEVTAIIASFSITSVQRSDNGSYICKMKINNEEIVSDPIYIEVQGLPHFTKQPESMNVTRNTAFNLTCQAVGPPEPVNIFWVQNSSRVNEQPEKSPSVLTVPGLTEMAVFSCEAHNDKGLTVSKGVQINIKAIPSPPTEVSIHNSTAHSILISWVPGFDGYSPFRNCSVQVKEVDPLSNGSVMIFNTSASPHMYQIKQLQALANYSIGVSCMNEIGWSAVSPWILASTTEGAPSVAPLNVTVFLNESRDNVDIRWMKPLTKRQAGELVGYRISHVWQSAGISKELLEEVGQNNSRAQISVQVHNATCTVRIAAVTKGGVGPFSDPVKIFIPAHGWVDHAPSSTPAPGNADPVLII

T2: recombinant murine MerTK extracellular domain (mouse, UniProt Q60805 19-497)
T2 construct: also called Mouse MerTK; murine MerTK ECD; not shown: polyHis or TEVS/Thrombin/murine IgG2a-Fc tag
T2 sequence: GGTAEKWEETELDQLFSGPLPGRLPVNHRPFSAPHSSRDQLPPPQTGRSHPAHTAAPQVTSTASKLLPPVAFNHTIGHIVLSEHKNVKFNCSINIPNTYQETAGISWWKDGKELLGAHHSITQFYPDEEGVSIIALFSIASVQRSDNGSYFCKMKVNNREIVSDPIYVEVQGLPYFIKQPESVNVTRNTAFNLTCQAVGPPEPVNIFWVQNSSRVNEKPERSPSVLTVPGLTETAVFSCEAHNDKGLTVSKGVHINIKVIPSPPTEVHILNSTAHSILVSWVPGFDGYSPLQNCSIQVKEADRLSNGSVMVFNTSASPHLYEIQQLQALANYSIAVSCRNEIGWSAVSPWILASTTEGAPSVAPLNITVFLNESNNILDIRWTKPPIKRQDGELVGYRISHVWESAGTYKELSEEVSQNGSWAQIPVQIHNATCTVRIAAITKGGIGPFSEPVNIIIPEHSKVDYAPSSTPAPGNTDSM

T3: MerTK N-terminal ECD Half-and-half chimera (human)
T3 construct: tested as culture supernatant; also called MerTK N-term half-and-half chimera; MerTK N-terminal ECD (NT-Ig1-Ig2) + Axl C-terminal ECD (FN1-FN2-JM)
T3 chain: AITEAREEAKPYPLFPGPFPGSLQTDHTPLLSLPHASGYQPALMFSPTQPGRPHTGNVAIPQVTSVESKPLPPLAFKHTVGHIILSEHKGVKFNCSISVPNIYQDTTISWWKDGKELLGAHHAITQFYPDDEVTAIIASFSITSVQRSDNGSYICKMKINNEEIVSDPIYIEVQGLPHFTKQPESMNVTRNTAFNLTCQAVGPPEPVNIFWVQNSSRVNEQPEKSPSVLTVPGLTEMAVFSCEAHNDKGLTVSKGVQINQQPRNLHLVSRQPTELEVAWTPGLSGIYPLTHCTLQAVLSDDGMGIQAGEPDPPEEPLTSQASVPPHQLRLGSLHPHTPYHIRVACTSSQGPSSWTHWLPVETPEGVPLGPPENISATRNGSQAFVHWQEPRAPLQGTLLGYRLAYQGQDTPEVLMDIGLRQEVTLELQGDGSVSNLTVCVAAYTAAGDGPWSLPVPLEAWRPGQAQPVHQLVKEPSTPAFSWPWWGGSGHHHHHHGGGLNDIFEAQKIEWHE


Key:
[1] = target: T1, recombinant cynomolgus MerTK …; assay: SPR Carterra LSA
Method: Binding kinetics of anti-MerTK IgG1 antibodies of the present disclosure to human, cyno, and murine MerTK were evaluated using a Carterra LSA instrument (Carterra, Salt Lake City, UT). […] A HC200M sensor chip (Carterra) was activated using the single channel flow cell with a 7-minute injection of a 1:1:1 mixture of 100 mM MES pH 5.5, 100 mM sulfo-NHS, 400 mM EDC (all reconstituted in MES pH 5.5; 100 μl of each mixed in vial immediately before running assay). After switching to the multi-channel array flow cell, the antibodies were injected over the activated chip in three 96-spot arrays for 10 minutes each. The remaining unconjugated active groups on the chip were then blocked by injecting 1M Ethanolamine pH 8.5 (Carterra) for 7 minutes using the single channel flow cell. The resulting sensor chip contained three spots for each antibody, at three different densities. Two independent experiments were performed as follows, resulting in an N of between one and six determinations for each antibody. Spots that yielded less than 25 RU of analyte binding were excluded from further analysis.
After priming with running buffer (HBS-TE, Carterra) with 0.5 mg/ml BSA (Sigma), the immobilized anti-MerTK antibodies were tested for their ability to bind to several forms of recombinant MerTK extracellular domain, including human, cynomolgus, and mouse orthologs as described above. Estimates of affinity were generated by injecting each analyte over the entire antibody array using the single channel flow cell. MerTK analytes were diluted with running buffer, in a series of six, three-fold serial dilutions starting from 1 μM for human and cynomolgus MerTK, and 600 nM for mouse MerTK. Analytes were injected for 5 minutes, and dissociation was followed for 10 minutes. After each analyte injection, antibodies were regenerated with either Protein A/G Elution Buffer (Thermo) with 1M NaCl (Teknova), or with 10 mM Glycine pH 2.5. Three buffer blanks were run between each series (one species per series). Data were processed and analyzed using NextGenKIT high-throughput kinetics analysis software (Carterra).

[2] = target: T1, recombinant cynomolgus MerTK …; assay: SPR Carterra LSA, Ab immobilised
Method in brief: (§1)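 Surface plasmon resonance on a Carterra LSA measured affinity of immobilized antibodies for human, cynomolgus or mouse MerTK ectodomain diluted in HBS-TE with 0.5 mg/ml BSA. Analytes flowed over the full array, surfaces were regenerated with Protein A/G Elution Buffer plus 1M NaCl or 10 mM Glycine pH 2.5, and spots binding under 25 RU were discarded before kinetic fitting.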

[3] = target: T2, recombinant murine MerTK extracellular …; assay: SPR Carterra LSA, Ab immobilised
Method in brief: as §1

[4] = target: T3, MerTK N-terminal ECD Half-and-half …; assay: SPR, construct supernatant over immobilised Ab
Method: Binding of anti-MerTK antibodies of the present disclosure to these domain-swapped chimera or deletion mutants was tested by Surface Plasmon Resonance (SPR) using Carterra LSA. Purified anti-MerTK antibodies were immobilized in duplicate on a HC30M chip (Carterra) by amine coupling, following the manufacturer's instructions (described previously).
Supernatants containing the constructs were diluted 1:1 with running buffer containing 0.5 mg/mL BSA (HBS-TE, Carterra; BSA, Sigma) and injected over the immobilized antibodies. The surface was regenerated with 10 mM Glycine pH2.0 after each construct injection. Sensorgrams were analyzed using Carterra Epitope software to identify patterns of construct binding. Loss of binding to MerTK constructs with domains deleted or swapped in from Axl and/or gain of binding to Axl constructs with MerTK domains swapped in were evaluated. Data from these studies were used to construct a domain binding map for anti-MerTK antibodies and their binding to various domains of human MerTK.

Row | Ratio of KD for Cynomolgus vs Human MerTK [1] | Kd [2] | binding result [4] | Kd [3] | Binder | binding result [3]
1 | 24.7 ratio | 3700 nM | no binding | – | MTK-206 (antibody, human IgG1, V domains shown) VH: QVQLQQSGAELARPGASVKMSCKASGYTFTSYTMHWVKQRPGQGLEWIGYINPSSGYIKNSQKFKDKATLTADKSSSTAYMQLSSLTSEDSAVYYCARTVYGYYGSSPDYWGQGTTLTVSS VL: DIQMTQSPSSLSASLGERVSLTCRASQDIGSNLNWLQQEPDGTIKRLIYATSSLESGVPKRFSGSRSGSDYSLTISSLESEDFVDYYCLQYDSSPWTFGGGTKLEIK | no binding (tested: analyte up to 600 nM)
2 | 18.3 ratio | 1500 nM | no binding | 11 nM | MTK-212 (antibody, human IgG1, V domains shown) VH: QVQLQQSGPELVKPGASVKISCKASGYAFSSSWVNWVKQRPGKGLEWIGRIYPGDGDSNYNGNFKGKATLTADKSSNTAYLQLSSLTSEDSAVYFCARKSHFIYYTLDYWGQGTPVTVSS VL: DIVMTQSHKFKSTSVGDRVSIACKASQDVGTSVAWYQQKPGKSPKLLIYWASSRHTGVPDRFTGSGSGTDFTLTISNVQSEDLTDYFCQQYSTYPYTFGGGTKLEIK | –
